Common to all, as to test: two-hybrid library CCNG1;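 also: natural log of median RNA to DNA barcode read ratio; higher means stronger binding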
Assay [1] deals with T1, 4H906-bH.
T1 chain: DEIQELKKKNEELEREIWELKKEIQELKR

Assay [2] has as its target T2, 4H2702-bA.
T2 chain: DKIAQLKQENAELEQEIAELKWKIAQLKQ

The target of assay [3] is T3, 4H3129-bH.
T3 chain: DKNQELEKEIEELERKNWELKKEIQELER

Assay [4] concerns the target T4, 4H1629-bH.
T4 chain: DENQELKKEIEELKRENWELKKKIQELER

Assay [5] has as its target T5, 4H3414-bH.
T5 chain: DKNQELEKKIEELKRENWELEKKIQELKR

Assay [6] deals with T6, 4H1449-bH.
T6 chain: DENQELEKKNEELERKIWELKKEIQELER

Assay [7] has as its target T7, 4H1393-bH.
T7 chain: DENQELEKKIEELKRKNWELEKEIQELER

The target in assay [8] is T8, 4H1710-bH.
T8 chain: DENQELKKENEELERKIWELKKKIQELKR

The target in assay [9] is T9, 4H570-bH.
T9 chain: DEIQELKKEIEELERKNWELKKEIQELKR

For assay [10], the target named is T10, 4H3638-bH.
T10 chain: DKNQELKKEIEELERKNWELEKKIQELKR

The target in assay [11] is T11, 4H1804-bH.
T11 chain: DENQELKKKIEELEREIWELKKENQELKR

Assay [12] has as its target T12, 4H3817-bH.
T12 chain: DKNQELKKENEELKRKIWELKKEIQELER

Assay [13] concerns the target T13, 4H3628-bA.
T13 chain: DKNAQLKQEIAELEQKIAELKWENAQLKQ

In assay [14] the target is T14, 4H3172-bH.
T14 chain: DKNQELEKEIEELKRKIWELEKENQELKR

Assay [15] concerns the target T15, 4H619-bH.
T15 chain: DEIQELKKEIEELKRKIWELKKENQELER

Assay [16] has as its target T16, 4H584-bH.
T16 chain: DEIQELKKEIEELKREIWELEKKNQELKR

Assay [17] concerns the target T17, 4H3974-bH.
T17 chain: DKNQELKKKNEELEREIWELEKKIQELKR

In assay [18] the target is T18, 4H850-bH.
T18 chain: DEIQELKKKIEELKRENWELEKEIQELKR

Assay [19] has as its target T19, 4H780-bA.
T19 chain: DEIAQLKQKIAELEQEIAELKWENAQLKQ

Assay [20] deals with T20, 4H908-bN.
T20 chain: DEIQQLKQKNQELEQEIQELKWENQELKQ

For assay [21], the target named is T21, 4H797-bA.
T21 chain: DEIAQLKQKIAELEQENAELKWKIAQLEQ

Assay [22] addresses T22, 4H968-bA.
T22 chain: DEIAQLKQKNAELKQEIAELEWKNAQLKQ

For assay [23], the target named is T23, 4H754-bA.
T23 chain: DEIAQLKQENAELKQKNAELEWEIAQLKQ

Assay [24] deals with T24, 4H918-bA.
T24 chain: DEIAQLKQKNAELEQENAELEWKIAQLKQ

Assay [25] concerns the target T25, 4H855-bA.
T25 chain: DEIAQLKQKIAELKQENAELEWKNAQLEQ

The target of assay [26] is T26, 4H953-bA.
T26 chain: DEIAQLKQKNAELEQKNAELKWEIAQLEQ

Assay [27] concerns the target T27, 4H883-bA.
T27 chain: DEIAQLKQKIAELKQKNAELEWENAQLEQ

Assay [28] has as its target T28, P11mS.
T28 chain: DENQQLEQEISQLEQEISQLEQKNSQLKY

Assay [29] addresses T29, 4H908-bA.
T29 chain: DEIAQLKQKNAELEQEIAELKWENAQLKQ

Assay [30] has as its target T30, 4H967-bA.
T30 chain: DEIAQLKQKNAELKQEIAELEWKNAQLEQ

The target of assay [31] is T31, 4H2619-bN.
T31 chain: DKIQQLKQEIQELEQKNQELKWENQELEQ

Assay [32] has as its target T32, 4H2745-bN.
T32 chain: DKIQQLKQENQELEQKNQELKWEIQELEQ

Assay [33] deals with T33, 4H2568-bN.
T33 chain: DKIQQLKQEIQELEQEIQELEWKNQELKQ

Assay [34] addresses T34, 4H344-bN.
T34 chain: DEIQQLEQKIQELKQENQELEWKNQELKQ

For assay [35], the target named is T35, 4H470-bN.
T35 chain: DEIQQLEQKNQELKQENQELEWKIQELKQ

Assay [36] deals with T36, 4H3907-bN.
T36 chain: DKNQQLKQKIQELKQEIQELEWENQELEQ

The target in assay [37] is T37, 4H3961-bN.
T37 chain: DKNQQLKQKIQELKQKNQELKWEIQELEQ

Assay [38] addresses T38, 4H363-bN.
T38 chain: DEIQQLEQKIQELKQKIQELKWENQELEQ

Assay [39] concerns the target T39, 4H687-bN.
T39 chain: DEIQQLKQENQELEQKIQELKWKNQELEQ

The target in assay [40] is T40, 4H607-bN.
T40 chain: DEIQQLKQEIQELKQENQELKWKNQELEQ

Assay [41] deals with T41, 4H3782-bN.
T41 chain: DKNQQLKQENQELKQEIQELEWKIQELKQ

Assay [42] concerns the target T42, 4H568-bN.
T42 chain: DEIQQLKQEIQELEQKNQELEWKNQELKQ

Assay [43] concerns the target T43, 4H370-bN.
T43 chain: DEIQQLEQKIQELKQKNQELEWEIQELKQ

The target in assay [44] is T44, 4H797-bN.
T44 chain: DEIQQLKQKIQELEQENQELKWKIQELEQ

In assay [45] the target is T45, 4H2162-bA.
T45 chain: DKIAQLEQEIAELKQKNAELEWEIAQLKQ

Assay [46] concerns the target T46, 4H1446-bN.
T46 chain: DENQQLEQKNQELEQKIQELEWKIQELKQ

Assay [47] addresses T47, 4H72-bN.
T47 chain: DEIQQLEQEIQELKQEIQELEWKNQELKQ

In assay [48] the target is T48, 4H967-bN.
T48 chain: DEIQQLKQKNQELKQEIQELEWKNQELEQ

Assay [49] has as its target T49, 4H4001-bN.
T49 chain: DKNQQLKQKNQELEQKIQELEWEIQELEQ

Assay [50] addresses T50, 4H3189-bN.
T50 chain: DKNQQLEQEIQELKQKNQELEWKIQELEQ

The target of assay [51] is T51, 4H918-bN.
T51 chain: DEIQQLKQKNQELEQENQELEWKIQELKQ

Assay [52] concerns the target T52, 4H2610-bN.
T52 chain: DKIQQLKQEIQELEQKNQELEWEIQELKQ

The target in assay [53] is T53, 4H331-bN.
T53 chain: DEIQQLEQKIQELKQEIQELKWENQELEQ

The target of assay [54] is T54, 4H2697-bN.
T54 chain: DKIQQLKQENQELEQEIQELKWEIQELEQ

In assay [55] the target is T55, 4H883-bN.
T55 chain: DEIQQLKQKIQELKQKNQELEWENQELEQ

For assay [56], the target named is T56, 4H1369-bN.
T56 chain: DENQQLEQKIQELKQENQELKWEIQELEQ

Assay [57] addresses T57, 4H953-bN.
T57 chain: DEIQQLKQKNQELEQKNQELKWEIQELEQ

The target of assay [58] is T58, 4H2576-bN.
T58 chain: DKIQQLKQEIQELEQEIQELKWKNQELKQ

Assay [59] concerns the target T59, 4H2667-bN.
T59 chain: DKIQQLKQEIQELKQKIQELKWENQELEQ

Assay [60] deals with T60, 4H3606-bN.
T60 chain: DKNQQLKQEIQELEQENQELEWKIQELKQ

Assay [61] has as its target T61, 4H3843-bN.
T61 chain: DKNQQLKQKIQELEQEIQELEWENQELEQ

Assay [62] deals with T62, 4H1845-bN.
T62 chain: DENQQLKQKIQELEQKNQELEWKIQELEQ

Assay [63] has as its target T63, 4H462-bN.
T63 chain: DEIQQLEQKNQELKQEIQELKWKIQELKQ

Consider DENQELEKKIEELKRKNWELEKEIQELER [4H1393-bH], for which the interaction score was -1.05 in [1]; -2.15 in assay [2]; 0.0961 in assay [3]; -0.557 in [4]; 1 in assay [5]; -2.77 in assay [6]. The interaction score in assay [7] was -0.111; in assay [8] it was -0.501; in assay [9] it was -0.453; in assay [10], 1.2; in [11], -1.63; in [12], -0.474. For the same molecule, the interaction score is -0.789 in assay [13]; -0.553 in assay [14]; -1.79 in assay [15]; -0.3 in assay [16]; 0.0308 in assay [17]; 0.00584 in [18].

With DEIAQLKQENAELKQKNAELEWEIAQLKQ [4H754-bA], the interaction score was -1.48 in assay [19]; -0.94 in assay [20]; -0.233 in assay [21]; -0.368 in assay [22]; 1.57 in [23]; -0.579 in [24]. Also, the interaction score in assay [25] was -0.914; in [26] it was 0.496; in assay [27] it was -0.374; in [28], -1.53; in [29] it was -0.879; in assay [30] it was -0.575.

As for DKIQQLKQEIQELEQEIQELEWKNQELKQ [4H2568-bN], the interaction score in assay [31] is -0.118; in [32], -1.2; in [33], 0.798; in assay [34] it was -0.22; in [35] it was 0.618; in [36], 0.402. Further, the interaction score in [37] is 1.52; in [38] it was 0.932.

As to DENQQLEQKIQELKQENQELKWEIQELEQ [4H1369-bN], the interaction score in assay [39] is -1.7; in assay [40], -0.655; in assay [41] it was -1.06; in [42], -1.26; in [43] it was -1.79; in assay [44] it was -1.65. For the same molecule, the interaction score is -0.463 in assay [45]; -2.34 in assay [46]; -1.26 in assay [47]; -0.997 in [48]; -0.815 in assay [49]; -0.697 in assay [50]. Further, the interaction score in assay [51] was -0.868; in [52], -0.97; in assay [53], -1.16; in [54], -0.852; in assay [55] it was -1.19; in assay [56] it was -0.802. For the same molecule, the interaction score in assay [57] was -1.2; in assay [58], -0.023; in [59], -1.23; in assay [60], 0.215; in assay [61] it was -1.02; in [62] it was -1.4. This molecule also came in with an interaction score in assay [63] of -1.07.

For the origin of these results see article PMC10397247.
